This note sets out measurements from publication doi:10.1101/2021.04.12.439405 (bioRxiv, 2021).

This series deals with the molecule itself. The experiment in a line: native MS.

B1: His-MukF (natural protein, E. coli, UniProt P60293 1-440, looked up)
chain: MSEFSQTVPELVAWARKNDFSISLPVDRLSFLLAVATLNGERLDGEMSEGELVDAFRHVSDAFEQTSETIGVRANNAINDMVRQRLLNRFTSEQAEGNAIYRLTPLGIGITDYYIRQREFSTLRLSMQLSIVAGELKRAADAAEEGGDEFHWHRNVYAPLKYSVAEIFDSIDLTQRLMDEQQQQVKDDIAQLLNKDWRAAISSCELLLSETSGTLRELQDTLEAAGDKLQANLLRIQDATMTHDDLHFVDRLVFDLQSKLDRIISWGQQSIDLWIGYDRHVHKFIRTAIDMDKNRVFAQRLRQSVQTYFDEPWALTYANADRLLDMRDEEMALRDEEVTGELPEDLEYEEFNEIREQLAAIIEEQLAVYKTRQVPLDLGLVVREYLSQYPRARHFDVARIVIDQAVRLGVAQADFTGLPAKWQPINDYGAKVQAHVIDKY
Regarding B1, the binding result is on record as “binds”.
